Numbering of substitutions follows the chain as printed.
Key:
Assay in all cases: BLI (Octet), biotinylated CD123 ECD captured on streptavidin tips, hIL3 as analyte, level at 250 s normalised to loading
CD123 ECD wt = biological target: T1, CD123 ECD wt (human, UniProt P26951 19-305)
T1 construct: Recombinant extracellular domain; Biotinylated when captured for the hIL3 assay; also called CD123_WT; recombinant wildtype CD123
T1 sequence: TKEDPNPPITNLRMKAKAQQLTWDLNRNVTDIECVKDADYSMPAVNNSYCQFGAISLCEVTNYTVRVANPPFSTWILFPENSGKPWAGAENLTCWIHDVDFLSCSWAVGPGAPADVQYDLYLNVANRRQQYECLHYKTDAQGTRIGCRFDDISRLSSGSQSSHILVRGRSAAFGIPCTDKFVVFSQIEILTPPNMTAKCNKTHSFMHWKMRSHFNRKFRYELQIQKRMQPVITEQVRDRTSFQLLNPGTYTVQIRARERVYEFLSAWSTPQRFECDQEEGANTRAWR
Protocol: (§1) Binding of hIL3 (SinoBiological, PN: 11858-H08H) (analyte) to CD123 ECD wt. and variants (ligands) was performed using Streptavidin capture biosensor (SA) (Sartorius, PN: 18-5019). CD123 ECD wt. and variants were biotinylated using Biotinylation kit Type B (Abeam, PN: ab201796) following manufacturer instructions. Biotinylated CD123 ECD wt. and variants (ligands) were captured on SA tips for 1000 s to achieve a nm shift of 1.5 to 2 nm. Analyte hIL3 was titrated at 7 concentrations from 500 to 7.8 nM. Association to analyte was monitored for 300 s and dissociation for 120 s. Buffer only well was used as reference. No regeneration was performed, and a new set of tips was used for each biotinylated captured ligand. Data were analyzed using the Octet Data Analysis software HT 12.0. Due to the fast on/off nature of the interaction data were analyzed using Steady state analysis. Qualitative representation in FIG. 11 binding level were taken at 250 s association for all concentrations.

CD123 ECD S59F = biological target: T2, CD123 ECD S59F (human, UniProt P26951 19-305)
T2 construct: Recombinant ECD
T2 sequence: T1 sequence with S41F
Protocol: as §1

CD123 ECD E51K = biological target: T3, CD123 ECD E51K (human, UniProt P26951 19-305)
T3 construct: Recombinant ECD
T3 sequence: T1 sequence with E33K
Protocol: as §1

CD123 ECD S59P = biological target: T4, CD123 ECD S59P (human, UniProt P26951 19-305)
T4 construct: Recombinant ECD
T4 sequence: T1 sequence with S41P
Protocol: as §1

CD123 ECD R84E = biological target: T5, CD123 ECD R84E (human, UniProt P26951 19-305)
T5 construct: Recombinant ECD
T5 sequence: T1 sequence with R66E
Protocol: as §1

CD123 ECD E51Q = biological target: T6, CD123 ECD E51Q (human, UniProt P26951 19-305)
T6 construct: Recombinant ECD
T6 sequence: T1 sequence with E33Q
Protocol: as §1

- binding result (CD123 ECD wt): binds
- binding result (CD123 ECD S59F): binds
- binding result (CD123 ECD E51K): binds
- binding result (CD123 ECD S59P): binds
- binding result (CD123 ECD R84E): binds
- binding result (CD123 ECD E51Q): binds
B1: hIL3 (ligand, human, UniProt P08700 20-152, looked up)
chain: APMTQTTPLKTSWVNCSNMIDEIITHLKQPPLPLLDFNNLNGEDQDILMENNLRRPNLEAFNRAVKSLQNASAIESILKNLLPCLPLATAAPTRHPIHIKDGDWNEFRRKLTFYLKTLENAQAQQTTLSLAIF
notes: also called Interleukin-3

From patent publication US20250326818A1 (UNIVERSIT T BASEL, published 2025)
